{
  "source": "paper PMC3871432",
  "about": "(The Journal of Cell Biology, 2013)",
  "binders": {"B1": {"name": "ASH1-E3-77 (structured_RNA)", "RNA": "GGGAGAGAAUUGAUACAUGGAUAACUGAAUCUCUUUCAACUAAUAAGAGACAUUAUCACGAAACAAUUGUACAUUUCUCU"}, "B2": {"name": "ASH1-E3-77 + 3' overhang (mixed)", "RNA": "GGGAGAGAAUUGAUACAUGGAUAACUGAAUCUCUUUCAACUAAUAAGAGACAUUAUCACGAAACAAUUGUACAUUUCUCUCCUUGUCUGUGCUAAAUAAACUAC", "DNA": "GTAGTTTATTTAGCACAGACAAGG"}, "B3": {"name": "ASH1-E3-77-tRNA (structured_RNA)", "RNA": "GGCUACGUAGCUCAGUUGGUUAGAGCAGCGGCCGAGAGAAUUGAUACAUGGAUAACUGAAUCUCUUUCAACUAAUAAGAGACAUUAUCACGAAACAAUUGUACAUUUCUCUUGGCCGCGGGUCACAGGUUCGAAUCCCGUCGUAGCCACCA"}, "B4": {"name": "IST2 + 22-nt 3' overhang (mixed)", "RNA": "GGGAUGCUGGAGUGAAGAAUGUCACGAACAAUUCUAAGACAACCGAAUCCUCUUCCUCUUCAUCGGCGGCAAAGGAAAAACCAAAA", "DNA": "TTTTGGTTTTTCCTTTGCCGCC"}, "B5": {"name": "She3p, full-length (natural protein)", "chain": "MSDQDNTQTSSSKLAPHHNIFMANLESSPTKDRNTSSQNASSSRVIESLHDQIDMLTKTNLQLTTQSQNLLSKLELAQSKESKLLENLNLLKNENENLNSIFERKNKKLKELEKDYSELSNRYNEQKEKMDQLSKLAKNSSAIEQSCSEKLQNMEVNYNSLLESQNLYRDHYSDEISKLNEKIGLLELELSNQNLNYGSDTSSNSDIELNLNKFNDSVKDLKSLETEKDSKLSKIITHSLDELNLQSWLNLYQTNENLISTFAEKMDLKDVLKRNDEKISNKGAVVQTLKKNVQTQVESNNADALSSNNAQDMLPIKMVKLRKTPNTNDSSSNGNSSNNKRRSFYTASPLLSSGSIPKSASPVLPGVKRTASVRKPSSSSSKTNVTHNNDPSTSPTISVPPGVTRTVSSTHKKKGNSMVVHGAQS"}, "B6": {"name": "She3p N-terminal fragment (amino acids 1–234) (domain or fragment)", "chain": "MSDQDNTQTSSSKLAPHHNIFMANLESSPTKDRNTSSQNASSSRVIESLHDQIDMLTKTNLQLTTQSQNLLSKLELAQSKESKLLENLNLLKNENENLNSIFERKNKKLKELEKDYSELSNRYNEQKEKMDQLSKLAKNSSAIEQSCSEKLQNMEVNYNSLLESQNLYRDHYSDEISKLNEKIGLLELELSNQNLNYGSDTSSNSDIELNLNKFNDSVKDLKSLETEKDSKLSK"}, "B7": {"name": "ASH1-E3-51 (structured_RNA)", "RNA": "AUGGAUAACUGAAUCUCUUUCAACUAAUAAGAGACAUUAUCACGAAACAAU"}, "B8": {"name": "IST2-tRNA (structured_RNA)", "RNA": "GGCUACGUAGCUCAGUUGGUUAGAGCAGCGGCCGGAUGCUGGAGUGAAGAAUGUCACGAACAAUUCUAAGACAACCGAAUCCUCUUCCUCUUCAUCUGGCCGCGGGUCACAGGUUCGAAUCCCGUCGUAGCCACCA"}},
  "key": {"She2p;She3p;Myo4p-C [1]": {"biological_target": "T1, She2p;She3p;Myo4p-C (Saccharomyces cerevisiae;Saccharomyces …, UniProt P36068;P38272;P32492 1-246;1-425;978-1471, ||)", "T1 sequence (P36068 whole entry, one chain of several)": "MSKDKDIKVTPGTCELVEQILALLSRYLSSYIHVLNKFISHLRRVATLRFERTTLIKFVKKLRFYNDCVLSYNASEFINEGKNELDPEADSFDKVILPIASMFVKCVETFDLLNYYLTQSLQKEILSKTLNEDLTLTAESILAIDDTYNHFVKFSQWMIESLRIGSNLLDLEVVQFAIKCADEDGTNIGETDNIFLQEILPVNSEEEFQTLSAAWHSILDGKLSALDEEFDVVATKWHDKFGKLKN", "test": "EMSA"}, "She3p;Myo4p-C": {"biological_target": "T2, She3p;Myo4p-C (Saccharomyces cerevisiae;Saccharomyces …, UniProt P38272;P32492 1-425;978-1471, |)", "T2 sequence 1": "B5 chain", "T2 sequence 2": "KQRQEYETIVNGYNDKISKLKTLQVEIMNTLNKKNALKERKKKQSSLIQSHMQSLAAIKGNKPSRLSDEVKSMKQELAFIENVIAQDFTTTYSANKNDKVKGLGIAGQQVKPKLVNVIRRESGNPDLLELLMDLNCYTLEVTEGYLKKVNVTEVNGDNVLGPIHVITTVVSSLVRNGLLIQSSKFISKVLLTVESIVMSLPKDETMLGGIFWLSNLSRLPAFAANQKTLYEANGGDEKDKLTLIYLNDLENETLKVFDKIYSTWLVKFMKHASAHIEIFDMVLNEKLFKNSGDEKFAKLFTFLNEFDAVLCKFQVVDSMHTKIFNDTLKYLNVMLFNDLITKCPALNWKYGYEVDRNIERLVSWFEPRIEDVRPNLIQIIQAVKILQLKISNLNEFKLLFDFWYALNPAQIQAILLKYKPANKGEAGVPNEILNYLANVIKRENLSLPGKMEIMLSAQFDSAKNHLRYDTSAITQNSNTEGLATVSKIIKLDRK", "test": "EMSA"}, "[2]": {"biological_target": "T3, She2p;She3p;Myo4p full-length (Saccharomyces cerevisiae;Saccharomyces …, UniProt P36068;P38272;P32492 1-246;1-425;1-1471, ||)", "T3 sequence (P36068 whole entry, one chain of several)": "as the sequence (P36068 whole entry, one chain of several) above", "test": "single-molecule TIRFM"}, "She2p;She3p;Myo4p-C [3]": {"biological_target": "T1, She2p;She3p;Myo4p-C", "test": "SLS"}, "She2p": {"biological_target": "She2p (Saccharomyces cerevisiae, UniProt P36068 1-246)", "sequence (P36068 whole entry)": "as the sequence (P36068 whole entry, one chain of several) above", "test": "SLS"}, "[4]": {"biological_target": "T3, She2p;She3p;Myo4p full-length", "test": "single-molecule TIRFM", "remark": "listed apart in the source"}, "[5]": {"biological_target": "T4, Myo4p-C (amino acids 978–1,471) (S. cerevisiae, UniProt P32492 978-1471)", "T4 sequence": "T2 sequence 2", "test": "ITC"}, "cross-linking": {"biological_target": "the molecule itself", "test": "cross-linking"}, "[6]": {"biological_target": "T4, Myo4p-C (amino acids 978–1,471)", "test": "quantitative mass spectrometry with heavy isotope-labeled peptides"}, "[7]": {"biological_target": "T4, Myo4p-C (amino acids 978–1,471)", "test": "static light scattering coupled to SEC"}, "[8]": {"biological_target": "T4, Myo4p-C (amino acids 978–1,471)", "test": "quantitative mass spectrometry with heavy isotope-labeled peptides", "remark": "listed apart in the source"}, "She2p;She3p;Myo4p-C [9]": {"biological_target": "T1, She2p;She3p;Myo4p-C", "test": "SEC"}},
  "note": "“And” between values parts separate entries of the source, which are not always exact repeats. Identical values can stand only once. Like-named read-outs stand apart in the source and are kept apart here.",
  "data": [
    {"binder": "B1", "values": [
      {"measurement": "binding result", "setting": "She2p;She3p;Myo4p-C [1]", "result": "binds"},
      {"measurement": "binding result", "setting": "She3p;Myo4p-C", "result": "binds"}
    ]},
    {"binder": "B2", "values": [
      {"measurement": "binding result", "setting": "[2]", "result": "binds"}
    ]},
    {"binder": "B3", "values": [
      {"measurement": "binding result", "setting": "She2p;She3p;Myo4p-C [3]", "result": "binds"},
      {"measurement": "binding result", "setting": "She2p", "result": "binds"}
    ]},
    {"binder": "B4", "values": [
      {"measurement": "binding result", "setting": "[4]", "result": "binds"}
    ]},
    {"binder": "B5", "values": [
      {"measurement": "stoichiometry N", "setting": "[5]", "result": "1.93 She3p:Myo4p"},
      {"measurement": "stoichiometry N", "setting": "cross-linking", "result": 2},
      {"measurement": "stoichiometry N", "setting": "[6]", "result": "2.56 She3p:Myo4p-C"},
      {"measurement": "stoichiometry N", "setting": "[7]", "result": 2, "unit": "She3p/Myo4p-C"},
      {"measurement": "stoichiometry N", "setting": "[8]", "result": "2.12 She3p:Myo4p-C and 2.23 She3p:Myo4p-C"}
    ]},
    {"binder": "B6", "values": [
      {"measurement": "binding result", "setting": "cross-linking", "result": "binds"}
    ]},
    {"binder": "B7", "values": [
      {"measurement": "binding result", "setting": "She2p;She3p;Myo4p-C [9]", "result": "binds"},
      {"measurement": "binding result", "setting": "She2p", "result": "binds"}
    ]},
    {"binder": "B8", "values": [
      {"measurement": "binding result", "setting": "She2p", "result": "binds"}
    ]}
  ]
}
